Results from the supplement of paper PMC11136658.

Test system: peptide library, one residue held at a place counted from the Y acceptor
Test: relative phosphorylation of the sub-library (ratio to the mean residue at this position); higher = residue favoured
How it was run: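 Biotinylated Tyr-centred peptide library mixtures, each fixing one residue at one position from −5 to +5, were incubated with purified recombinant kinases in 384-well plates for 90 min with 50 μM ATP plus γ-32P-ATP. Streptavidin membranes captured the peptides, which were rinsed and quantified by phosphorimaging and ImageQuant. At each position, intensities were divided by the sum of the 18 randomized residues (16 for the Ser/Thr-free library) and multiplied by that number. Each value is phosphorylation relative to the mean randomized residue.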

IRR, construct: aa945-end, human, sequence (P14616 945-1297, looked up): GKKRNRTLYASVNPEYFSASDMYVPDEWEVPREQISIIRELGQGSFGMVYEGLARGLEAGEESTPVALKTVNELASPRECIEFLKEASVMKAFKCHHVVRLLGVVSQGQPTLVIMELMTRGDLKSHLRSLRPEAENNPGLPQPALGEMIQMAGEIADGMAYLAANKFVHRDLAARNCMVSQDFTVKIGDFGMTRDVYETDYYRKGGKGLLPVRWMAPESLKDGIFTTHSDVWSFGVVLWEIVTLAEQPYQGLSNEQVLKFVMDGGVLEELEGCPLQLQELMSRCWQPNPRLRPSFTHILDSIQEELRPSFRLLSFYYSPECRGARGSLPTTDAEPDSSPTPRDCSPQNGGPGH
ITK, construct: aa352-end, human, sequence (Q08881 352-620, looked up): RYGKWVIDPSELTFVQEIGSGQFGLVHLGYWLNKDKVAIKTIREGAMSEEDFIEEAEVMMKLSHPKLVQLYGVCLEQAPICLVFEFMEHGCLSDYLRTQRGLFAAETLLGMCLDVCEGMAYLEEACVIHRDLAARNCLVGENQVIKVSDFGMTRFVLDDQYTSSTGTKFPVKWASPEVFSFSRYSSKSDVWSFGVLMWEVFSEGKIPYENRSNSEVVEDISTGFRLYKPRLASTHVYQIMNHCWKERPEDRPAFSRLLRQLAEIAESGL

IRR, construct: aa945-end, human (from UniProt P14616)
relative phosphorylation
Settings	at +1	at +2	at +3	at +4	at +5	at -1	at -2	at -3	at -4	at -5
A fixed	1.2	0.697	0.453	0.79	0.702	0.948	1.06	0.957	0.997	1.03
D fixed	0.718	0.923	0.342	1.35	0.583	2.42	1.56	1.39	1.41	1.13
E fixed	1.07	1.49	0.322	1.26	0.575	1.66	1.53	1.53	1.28	1.03
F fixed	1.4	1.19	1.51	1.06	2.09	0.666	0.685	0.903	0.854	0.904
G fixed	0.637	0.368	0.424	0.931	0.838	0.608	1.14	0.972	1.08	0.998
H fixed	1.85	1.07	1.37	1.24	1.21	1.08	0.901	1.13	1.07	1.09
I fixed	0.849	0.881	1.73	0.828	1.03	0.842	0.63	0.618	0.772	0.87
K fixed	0.399	0.686	0.433	0.906	0.693	0.35	0.977	0.864	1.05	1.28
L fixed	1.19	1.32	1.6	0.807	0.985	0.916	0.705	0.717	0.742	0.825
M fixed	2.18	1.44	2.06	0.975	1.06	0.75	0.803	0.779	0.853	0.84
N fixed	0.618	0.911	0.484	1.14	0.844	2.07	1.37	1.45	1.14	1.13
P fixed	0.423	0.796	0.374	0.892	1.37	1.07	1.24	0.834	0.957	0.978
Q fixed	0.998	1.02	0.546	1.04	0.867	0.911	1.18	1.24	1.19	1.12
R fixed	0.353	0.796	0.665	0.918	1.06	0.386	0.992	1.16	1.05	1.19
S fixed	0.835	0.771	0.509	0.977	0.705	0.856	1.06	1.05	0.847	0.88
T fixed	0.867	0.801	0.741	1.07	0.781	0.945	1.05	0.996	0.876	0.803
V fixed	0.906	0.945	1.43	0.85	0.723	0.757	0.651	0.647	0.776	0.806
W fixed	1.21	1.47	2.26	1.01	1.35	0.576	0.576	0.797	0.781	0.766
pThr fixed	1.57	1.06	0.323	0.922	0.584	1.66	1.23	1.27	1.2	1.07
pTyr fixed	1.06	1.64	0.393	1.12	0.513	2.83	1.35	1.26	0.928	1.02

ITK, construct: aa352-end, human (from UniProt Q08881)
relative phosphorylation
Settings	at +1	at +2	at +3	at +4	at +5	at -1	at -2	at -3	at -4	at -5
A fixed	1.81	1.06	0.772	0.857	1.11	0.551	1.01	0.947	1.03	0.997
D fixed	0.732	0.669	0.309	0.622	0.886	0.754	1.41	1.36	1.33	1.21
E fixed	1.51	1.13	0.274	0.821	0.792	0.709	1.51	1.52	1.38	1.08
F fixed	0.572	1.07	1.85	0.763	0.705	1.81	0.627	0.793	0.672	0.935
G fixed	1.08	0.639	0.788	1.26	1.1	0.384	1.43	1.21	1.17	1.13
H fixed	0.606	0.801	2.11	0.96	0.926	0.991	0.812	1.03	1.01	1.13
I fixed	1.51	1.12	0.913	0.996	0.332	2.5	0.548	0.511	0.759	0.718
K fixed	0.337	0.697	0.722	1.34	1.39	0.291	0.703	0.694	0.953	1.06
L fixed	0.606	0.908	0.832	0.771	0.72	2.16	0.969	0.666	0.743	0.757
M fixed	1.17	0.976	1.06	1.04	1.24	1.22	0.645	0.752	0.816	0.896
N fixed	0.361	1.06	0.757	0.846	1.06	0.585	1.33	1.39	1.15	1.24
P fixed	0.172	0.791	0.868	1.08	1.49	0.48	1.43	1.27	1.15	1.07
Q fixed	1.03	0.901	0.885	1.19	1.15	0.648	1.24	1.16	1.39	1.24
R fixed	0.432	0.987	1.41	1.32	1.55	0.308	0.64	0.774	1.05	1.14
S fixed	1.4	1.22	0.997	1.07	1.14	0.489	1.28	1.31	1.05	1.01
T fixed	1.36	1.45	0.767	1.12	1.01	1.19	1.05	1.1	0.807	0.902
V fixed	2.08	1.24	1.04	1.16	0.772	1.57	0.764	0.752	0.84	0.797
W fixed	1.23	1.27	1.65	0.785	0.634	1.36	0.605	0.759	0.706	0.692
pThr fixed	2.18	2.7	0.354	0.462	0.524	1.68	1.08	0.871	1.02	0.887
pTyr fixed	1.11	3.73	0.518	0.754	0.65	1.48	1.02	1.2	1.23	2.07
